pKd: −log10 of the molar value. Each block holds one substance with its values, some of them ahead of it.
Experiments:
murine NKG2D Fc (murine) = murine NKG2D Fc (murine) (UniProt O54709); assay: SPR; Biacore 8K or 8K+, 37°C; NKG2D Fc captured (Protein A chip as told for human NKG2D-Fc), ULBP6 as analyte in HBS-P (0.01 mol/L HEPES pH 7.4, 0.15 mol/L NaCl, 0.005% P20); kinetic or steady-state fit not given
human NKG2D Fc (human) = human NKG2D Fc (human) (UniProt P26718); assay: as above
[1] = target: recombinant soluble ULBP6-02 (human) (UniProt Q5VY80)
[2] = target: FcγRIIIa on the effector cells of the Promega ADCC Reporter Bioassay (human) (UniProt P08637)
[3] = target: human FcγRIIIa-V176, biotinylated (human) (UniProt P08637); assay: SPR; Biacore, 37°C; biotinylated FcγRs captured on Series S Sensor Chip CAP; threefold serial dilutions of the anti-ULBP6/2/5 antibodies injected at 30 μL/minute; HBS-P
[4] = target: human FcγRIIb, biotinylated (human) (UniProt P31994); assay: as above
[5] = target: human FcγRI, biotinylated (human) (UniProt P12314); assay: as above
[6] = target: human FcγRIIa-H167, biotinylated (human) (UniProt P12318); assay: as above
[7] = target: human FcγRIIa-R167, biotinylated (human) (UniProt P12318); assay: as above
[8] = target: human FcγRIIIa-F176, biotinylated (human) (UniProt P08637); assay: as above
[9] = target: recombinant soluble ULBP6-02 (human) (UniProt Q5VY80); remark: listed apart in the source

murine NKG2D Fc (murine), sequence (O54709 90-232): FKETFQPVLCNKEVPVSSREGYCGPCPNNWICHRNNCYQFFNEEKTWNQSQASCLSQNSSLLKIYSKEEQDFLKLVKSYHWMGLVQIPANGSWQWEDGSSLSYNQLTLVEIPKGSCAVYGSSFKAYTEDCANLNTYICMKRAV
human FcγRIIIa-F176, biotinylated (human), sequence (P08637 17-254): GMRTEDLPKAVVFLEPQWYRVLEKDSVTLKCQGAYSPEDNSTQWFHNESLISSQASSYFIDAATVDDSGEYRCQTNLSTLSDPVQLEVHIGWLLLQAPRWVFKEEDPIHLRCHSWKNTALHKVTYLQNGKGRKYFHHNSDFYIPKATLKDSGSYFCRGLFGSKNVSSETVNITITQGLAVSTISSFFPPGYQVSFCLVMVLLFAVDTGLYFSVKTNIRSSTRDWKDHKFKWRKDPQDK
FcγRIIIa on the effector cells of the Promega ADCC Reporter Bioassay (human), sequence (P08637 17-254): as above
human FcγRIIa-H167, biotinylated (human), sequence (P12318 34-317): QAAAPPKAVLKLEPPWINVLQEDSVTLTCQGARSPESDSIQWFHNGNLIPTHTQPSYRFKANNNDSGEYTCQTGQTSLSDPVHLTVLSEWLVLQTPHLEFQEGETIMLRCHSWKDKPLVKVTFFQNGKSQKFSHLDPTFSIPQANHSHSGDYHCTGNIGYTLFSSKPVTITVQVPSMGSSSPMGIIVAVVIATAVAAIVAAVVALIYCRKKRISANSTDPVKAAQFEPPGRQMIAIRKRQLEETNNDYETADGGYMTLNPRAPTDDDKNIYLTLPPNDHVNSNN
human FcγRIIa-R167, biotinylated (human), sequence (P12318 34-317 H167R): as the sequence (P12318 34-317) above, with H134R counted along it
human FcγRI, biotinylated (human), sequence (P12314 16-374): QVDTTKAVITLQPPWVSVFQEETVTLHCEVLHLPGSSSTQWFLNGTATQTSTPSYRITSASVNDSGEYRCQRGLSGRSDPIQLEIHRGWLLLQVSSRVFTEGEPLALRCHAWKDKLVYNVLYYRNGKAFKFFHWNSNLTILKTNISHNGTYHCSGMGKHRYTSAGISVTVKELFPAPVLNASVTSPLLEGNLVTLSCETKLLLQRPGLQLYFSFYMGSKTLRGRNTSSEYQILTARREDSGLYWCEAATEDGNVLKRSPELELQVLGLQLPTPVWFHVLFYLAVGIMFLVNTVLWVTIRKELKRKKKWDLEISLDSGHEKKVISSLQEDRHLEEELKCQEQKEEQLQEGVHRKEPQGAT
human NKG2D Fc (human), sequence (P26718 73-216): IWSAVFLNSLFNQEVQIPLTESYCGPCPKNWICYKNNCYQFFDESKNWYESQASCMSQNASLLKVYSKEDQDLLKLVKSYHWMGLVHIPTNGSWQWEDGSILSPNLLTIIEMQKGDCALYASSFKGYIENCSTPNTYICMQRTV
human FcγRIIIa-V176, biotinylated (human), sequence (P08637 17-254 F176V): as the sequence (P08637 17-254) above, with F160V counted along it
human FcγRIIb, biotinylated (human), sequence (P31994 43-310): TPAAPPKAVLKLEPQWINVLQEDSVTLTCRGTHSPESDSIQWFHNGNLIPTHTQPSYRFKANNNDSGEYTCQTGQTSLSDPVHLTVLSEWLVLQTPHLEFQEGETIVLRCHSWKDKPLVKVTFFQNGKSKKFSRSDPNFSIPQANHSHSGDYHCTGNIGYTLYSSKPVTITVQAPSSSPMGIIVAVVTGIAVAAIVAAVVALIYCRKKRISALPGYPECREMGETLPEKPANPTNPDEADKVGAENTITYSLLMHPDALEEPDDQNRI

- pKd (murine NKG2D Fc (murine)): 9.19
- pKd (human NKG2D Fc (human)): 9.10
Substance: human ULBP6 (analyte of Supplementary Table S6) (from UniProt Q5VY80 26-218) (ligand)

- IC50 (so in the source) of IFNγ secretion by IL-2/IL-15-primed PBMCs cocultured with COV644 cells and 50 nmol/L sULBP6-02, 0.05-200 nmol/L 23ME-01473, donor d1213; pair blocked: sULBP6-02 and NKG2D [1]: 21.5 nM
- IC50 (so in the source) of IFNγ secretion by IL-2/IL-15-primed PBMCs cocultured with COV644 cells and 50 nmol/L sULBP6-02, 0.05-200 nmol/L 23ME-01473, donor d1802; pair blocked: sULBP6-02 and NKG2D [1]: 25.5 nM
- IC50 (so in the source) of IFNγ secretion by IL-2/IL-15-primed PBMCs cocultured with COV644 cells and 50 nmol/L sULBP6-02, 0.05-200 nmol/L 23ME-01473, donor d3761; pair blocked: sULBP6-02 and NKG2D [1]: 13.6 nM
- IC50 (so in the source) of IFNγ secretion by IL-2/IL-15-primed PBMCs cocultured with COV644 cells and 50 nmol/L sULBP6-02, 0.05-200 nmol/L 23ME-01473, donor d33936; pair blocked: sULBP6-02 and NKG2D [1]: 25.6 nM
- EC50 of FcγRIIIa activation (RLU), Promega ADCC reporter assay with luciferase effector cells and COV644 target cells, 0.0001 to 10 nmol/L antibody [2]: 0.0532 nM
- pKd [3]: 8.17
- pKd [4]: 5.65
- pKd [5]: 9.04
- pKd [6]: 6.57
- pKd [7]: 6.39
- pKd [8]: 7.59
Substance: 23ME-01473, humanized Fc effector-enhanced (afucosylated) anti-ULBP6/2/5 antibody

- IC50 (so in the source) of the rescue of IFNγ production by PBMCs cocultured with COV644 cells in the presence of sULBP6, donor d1212; pair blocked: sULBP6-02 and NKG2D [9]: 26 nM
- IC50 (so in the source) of the rescue of IFNγ production by PBMCs cocultured with COV644 cells in the presence of sULBP6, donor d1939; pair blocked: sULBP6-02 and NKG2D [9]: 10.6 nM
- IC50 (so in the source) of the rescue of IFNγ production by PBMCs cocultured with COV644 cells in the presence of sULBP6, donor d33936; pair blocked: sULBP6-02 and NKG2D [9]: 16.5 nM
Substance: Fc-Att-anti-ULBP6/2/5, effector-attenuated (N297G) version of 23ME-01473 (antibody)

From PMC11927390
